{"source": "patent US12447133B2", "about": "“Composition and device for preventing hypoglycemia and use thereof” (THE GOVERNING COUNCIL OF THE UNIVERSITY OF TORONTO, priority 2018, dated 2025)", "key": {"[1]": {"test_system": "STZ-induced type 1 diabetic male Sprague Dawley rats", "assay": "Antidiabetic effect of S.C. microgel injection in type 1 diabetic rats", "format": "in vivo, rat", "procedure": "Male Sprague Dawley rats (Charles River) were treated with 65 mg/kg streptozotocin (STZ) to induce type 1 diabetes. The rats receiving STZ were carefully monitored for 1 week during which time the blood sugar was measured in 2 day intervals using a glucose meter (OneTouch® Ultra®, LifeScan, Inc., USA). Diabetic rats with blood sugar stabilized above 17 mmol/L were selected for the study. All rats were fasted for 4 hours prior to the experiment to eliminate the possible confounding effect of food (BERNICE […], 1965). The blood glucose levels of the diabetic rats were monitored every 15 minutes throughout the experiment. […] The blood glucose levels were measured every 15 min after injection and stopped whenever they were above/bellow euglycemia threshold."}, "[2]": {"assay": "Stability of released glucagon (far-UV CD and RP-HPLC)", "format": "physicochemical", "procedure": "The effect of glucose concentration on microgel size was characterized using dynamic light scattering (DLS, Malvern Zetasizer Nano-ZS). Adjustment of pH was made using NaOH or HCl. Dimensions and surface morphology of freeze-dried microgels were examined by scanning electron microscopy (SEM/EDX) at an acceleration voltage of 20 kV. Transmission electron microscopy (TEM) images were performed on a Hitachi H-7500 transmission electron microscope operated at 80 kV. In addition, Rhodamine-B (Rh-B) labelling was applied to track the distribution of microgels within the microneedle array. The microgels were first immersed in 10 μg/mL of Rh-B for 12 hours at room temperature and then washed with DI-water three times. […] Glucagon and its degradation products were assayed using a reversed-phase high-performance liquid chromatography (RP-HPLC) system (Waters, MA, USA) equipped with a binary pump, autosampler, and UV detector (2899 Photodiode Detector Array, Waters, MA, USA). ^1H-NMR, and ^11B-NMR spectra were recorded in dimethyl sulfoxide (DMSO) and deuterium oxide (D2O) with a Bruker AM 400 spectrometer (400 MHz). […] Glucagon released from microgels or MNs were collected and measured using a CD spectropolarimeter (Jasco J-810, MD, USA) equipped with a Peltier temperature module set to 25° C. […]"}}}
{"substance": "insulin", "values": [{"measurement": "time after which blood glucose increased back to hyperglycemia", "setting": "[1]; 0.5 IU/kg insulin S.C.", "value": 3, "unit": "h"}, {"measurement": "occurrence of hypoglycemia", "setting": "[1]; 1 IU/kg insulin S.C.", "value": "fell even further below the hypoglycemic threshold"}, {"measurement": "time to reach euglycemia post-injection", "setting": "[1]; 1 IU/kg insulin S.C.", "value": "≤ 45", "unit": "min"}]}
{"substance": "glucagon", "values": [{"measurement": "secondary structure of released glucagon (far-UV CD, peaks at 208 and 222 nm)", "setting": "[2]; released at 50 mg/dL glucose, compared to fresh native glucagon", "value": "preserved"}, {"measurement": "degradation products of released glucagon (RP-HPLC)", "setting": "[2]; released from composite patch, compared to fresh glucagon", "value": "no detectable degradants"}]}
